From the supplement of paper PMC9170038

System: MS2 coat protein
Experiment: apparent KD of MS2 coat protein; higher = weaker reporter binding
Conditions: Eterna round: R107; input ligand: theophylline 20 uM
Description: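 RNA-MaP round R107: designed RNA switches with theophylline, tryptophan, arginine or FMN aptamers are transcribed on-chip within common flanks. They are titrated with SNAP-549-labelled MS2 coat protein in RNA-MaP buffer (100 mM Tris pH 7.5, 80 mM KCl, 4 mM MgCl2), without ligand or with the indicated ligand. Median apparent KD per design.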

Sequence	apparent KD of MS2 coat protein
GUAUUUAUAUGAAGGAGCGUCGAAAAUGGGUAAACAUGAGGAUCACCCAUGUAAAGGGAACGACAGGUAGGUCGCAUAUGGAUAC [AstromonsSSArgB#25]	251 nM
ACCAGCACACAUGAUACCAGCGACAUGAGGAUCACCCAUGUACGGCGUGUAUCGAAAGGUUGCCCUUGGCAGCAUGAUAGUGCUA [Ratiarla]	28.2 nM
CCAUCUUCAUCGGCCGCCACUGAACCAAGGAGACAUGAGGAUCACCCAUGUAUGGGAAACCAUCAUAGGACCGGGAUGAAGGUGG [doubleHookLine]	56.1 nM
CAUACUUUAGUAUGACAUGUGGGCAGUGAUACCAGAUACGAAAGUAUCCCUUGGCAGCACAACAUGAGGAUCACCCAUGUAAUUA [Theophylline A 2]	52 nM
UGUAUGGACUGAAGGAGCGGGUUGAUAACAUGAGGAUCACCCAUGUAAAAGGCGAAAGCCGCCCAGGUAGGUCGCAGUCCAUACU	19.5 nM
UCGCUCUGGGUGAAUUCCGGAGAUGUGGAAGGAGCGGACGAAAGUCCAGGUAGGUCGCCAUCGAACAUGAGGAUCACCCAUGUAC [Same State - Arginine A (Freestyle 24)]	105 nM
AUAUUAGACCUGGAUACCAGCGACAUGAGGAUCACCCAUGUAUGUGCAUCAGCCAUGAUAUGCCCUUGGCAGCCACCGAGGUCGU [YYTMULLIN]	17.9 nM
UGGGUUGGACCAGGAAAUGGUCUGACGCACCGAGGACCGGUACGGCCGCCACUCGGCCGUACAUGAGGAUCACCCAUGUCGGUGU [#1 Same State - Tryptophan A Attempt #13 (HarryS)]	486 nM
AACCAUCUCGGCGAUACCAGUGCCUACGAGUACAUGAGGAUCACCCAUGUAGGUGACCGACACCCUUGGCAGCGCGAUUGAGUCA [theeternabot_sameState_MS2_Theo_B_45]	184 nM
ACCUGUACGAAAAGUGCAGGACAUGGAAAUCGAGGACCGGUACGGCCGCCACUCGUAUAAAACAAGUGGAUCACCCUUGUCCAUG [TrypAS 2 #AlternativeMS2 #Zipper #StaticStem]	960 nM
GCAUUACAUGAGGAUCACCCAUGUCUAGAUACCAGAUUUGUUUGAAUCCCUUGGCAGCUAGUGGACCACCGUACACGACAUACUA [theeternabot_sameState_MS2_Theo_A_17]	47.1 nM
GCACGACAUGAGGAUCACCCAUGUGCAGAUACCAGUAAUGUAUAUUACCCUUGGCAGCUGAGUAGGUCUGGAGGGCUAUAGGUAA [Same State Theophylline A GF11]	20.6 nM
AUGUCGUUGAAUAUAGCGGCUUGGAGUGAUACCAGCAUGAUCCAAUGCCCUUGGCAGCAUAACAUGAGGAUCACCCAUGUUCCAG [SSTheo A #26]	68.7 nM
UAUCGUCAGACGGCCGCCACUAGAACAUGAGGAUCACCCAUGUAGGCGGCCGAUUCCUCAUUAACUAGGACCGGGUCUGACGAAU [(Trp1)-(Ms2)-(T)'-(M)'-(Trp2)_Design11]	15.9 nM
CCAUGCGUAGGAAGGAGCGCAUACUUCACAUGAGGAUCACCCAUGUCGAGACGUGAGUCAGUGCAGGUAGGUCGCCUACGCAUGG [Same State - Arginine B (Freestyle 27)]	24.3 nM

Same assay, conditions: Eterna round: R107; input ligand: theophylline 2 mM

Sequence	apparent KD of MS2 coat protein
UAUUAUCAGUCGGCCGCCACUGACACAUGAGGAUCACCCAUGUAAUUUGGGUUAUAUAUAAAUUACAGGACCGGGACAAAUGCUA [JR_Nu13_ExcTryptoB_Sub025]	368 nM
GGAUAGGACACGGCCGCCACUACCUAGGAUACUAGAAACAUUUCCUCACAUGAGGAUCACCCAUGUAGGACCGGGUGUCCUAUCG	351 nM
ACAUGAGGAUCACCCAUGUUGAGCACAGAAGGAGCGUGAUUAAGCACAGGUAGGUCGCUGUACUUAUCGAGCGUUAGCUCGAUAC [JR_Nu_SSArginiA_Sub030]	28.3 nM
ACAUGAGGAUCACCCAUGUACAUGAGGGAAGGAGCGGUACAUGAGCCAGGUAGGUCGCCCAUGAGCAUCAGCCAUGUACAUCAGC [vv,mmullin]	101 nM
AAUAAUAGGUGAUCUUAAGUCGUACCGUAACGAGGACCGGUACGGCCGCCACUCGAACAUGAGGAUCACCCAUGUAUGUAUGAUA [whbob_SS_trypto A_f5]	300 nM
CAGGCCUUGCCCGGUGUUCCGAAAGUGGAAGGAGCGCACAUUGGUGCAGGUAGGUCGCCACAUGAGGAUCACCCAUGUCUAGGCC [Aveatti]	22.5 nM
UACUGUCUAACGGCCGCCACUCAGUCUCGGUUGAUUAUCUUAAGUGACAUGAGGAUCACCCAUGUGAGGACCGGGUUGUGCAUAA [theeternabot_exclusion_MS2_Trp_B_40]	96.7 nM
GUGCCGCAUUCACAUGAGGAUCACCCAUGUCGAGGACCGGUACGGCCGCCACUCGACGUGCUUACAGGUCCUUUACGGCCCAAUA [Biedxele]	36.9 nM
ACCUGUACGAAAAGUGCAGGACAUGGUAAACGAGGACCGGUACGGCCGCCACUCGAAUAACAAGUGGAUCACCCUUGUAACCAUG [TrypAS 5 #AlternativeMS2 #Zipper #StaticStem]	3020 nM
AAGAUACUCUGAAGGAGCGUCAUAAAACAUGAGGAUCACCCAUGUGCGCGGGUGUAAUUAUGACAGGUAGGUCGCAGAGUAUUUA [Arg B SS t2]	601 nM
GGAGUAGGAAACUAUUCCAAUCCUCGUGAACGAGGACCGGUACGGCCGCCACUCGAUAAAUAAAUACAUGAGGAUCACCCAUGUU [Ex Tryptophan A 23]	82.1 nM
GCCAAAGGCUACAUGAGGAUCACCCAUGUACGAGGACCGGUACGGCCGCCACUCGUACGGCCUCCUACUGGACGGGAAACCGUCG [ETA NP+V+V2 #28]	28 nM
GUAUUUAUAUGAAGGAGCGUCGAAAAUGGGUAAACAUGAGGAUCACCCAUGUAAAGGGAACGACAGGUAGGUCGCAUAUGGAUAC [AstromonsSSArgB#25]	279 nM
CCAUCUUCAUCGGCCGCCACUGAACCAAGGAGACAUGAGGAUCACCCAUGUAUGGGAAACCAUCAUAGGACCGGGAUGAAGGUGG [doubleHookLine]	48.1 nM
